# T1: human LAG-3-6*His tag recombinant fusion protein (human, UniProt P18627 23-450, biotin-labelled in panning and in Example 9)
# T1 construct: Bought protein; also called hLAG-3-6*his tag recombinant protein; human LAG-3-his tag recombinant fusion protein
# T1 sequence: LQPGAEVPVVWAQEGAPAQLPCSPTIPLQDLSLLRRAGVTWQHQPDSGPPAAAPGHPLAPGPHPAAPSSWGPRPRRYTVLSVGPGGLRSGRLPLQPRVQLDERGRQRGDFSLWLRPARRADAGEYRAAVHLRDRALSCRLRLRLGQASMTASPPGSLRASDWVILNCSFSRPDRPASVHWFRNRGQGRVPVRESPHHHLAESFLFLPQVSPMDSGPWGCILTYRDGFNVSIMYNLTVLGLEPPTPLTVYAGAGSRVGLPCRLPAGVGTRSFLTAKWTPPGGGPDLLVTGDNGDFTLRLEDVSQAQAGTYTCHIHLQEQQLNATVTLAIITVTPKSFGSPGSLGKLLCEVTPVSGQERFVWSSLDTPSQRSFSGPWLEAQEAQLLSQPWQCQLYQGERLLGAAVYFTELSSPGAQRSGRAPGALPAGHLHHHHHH
# B1: anti-human LAG-3 full human monoclonal antibody MV705-3 (antibody, human IgG4, V domains shown)
# VH: EVQLLESGAEVKKPGASVKVSCKASGYTFTSYGISWVRQAPGQGLEWMGWISAYNGNTNYAQKLQGRVTMTTDTSTSTAYMELRSLRSDDTAVYYCARDGWWELLRPDDAFDIWGQGTTVTVSS
# VL: QLVLTQSPSVSVSPGQTASITCSGDKLGDKYAYWYQQKPGQAPVLVIYYDSDRPSGIPERFSGSNSGNTATLTISRVEAGDEADYYCQVWDSSSDQVVFGGGTQLTVLG
# notes: Full IgG4 with lambda light chain; also called MV705-3(DD + DD)
# Legend:
# [1] = target: T1, human LAG-3-6*His tag recombinant …; test: BLI Octet Red96, MV705-3 on AHC sensor, human LAG-3-6*His at 500 nM, 1:1 model
# [2] = target: T1, human LAG-3-6*His tag recombinant …; test: BLI (Octet Red96), biotinylated hLAG-3-6*his on SA biosensor, antibody 100 µg/mL in solution, 1:2 binding model
# [3] = target: T1, human LAG-3-6*His tag recombinant …; test: as above; remark: listed apart in the source
# [4] = target: T1, human LAG-3-6*His tag recombinant …; test: as above; remark: listed apart in the source
# [5] = target: T1, human LAG-3-6*His tag recombinant …; test: ELISA, human LAG-3-6*His coated at 1 µg/ml, IgG4 titrated, anti-hIgG HRP
# [6] = target: T1, human LAG-3-6*His tag recombinant …; test: BLI Octet Red96, MV705-3 on AHC sensor, human LAG-3-6*His at 1000 nM, 1:1 model
# [7] = target: T1, human LAG-3-6*His tag recombinant …; test: SPR BIAcore T200, antibody on CM5 chip, human LAG-3-6*His 0.352 to 45 nM as analyte
# [8] = target: T2, recombinant Macaca fascicularis LAG-3-6*His tag fusion protein (Macaca fascicularis); test: ELISA, antibody coated at 1 µg/ml, Macaca fascicularis LAG-3-6*His titrated, anti-His HRP
# T2 construct: Bought protein; also called Macaca fascicularis LAG-3 antigen
# [9] = target: T1, human LAG-3-6*His tag recombinant …; test: ELISA, antibody coated at 1 µg/ml, human LAG-3-6*His titrated, anti-His HRP; range of three experiments
binder,measurement,setting,value
B1,Kd,[1],2.5 nM
same,koff,[1],9.95e-05 s⁻¹
same,kon,[1],39900 M⁻¹ s⁻¹
same,Kd,[2],3.04 nM
same,koff,[2],0.000373 s⁻¹
same,kon,[2],122000 M⁻¹ s⁻¹
same,Kd,[3],4.83 nM
same,koff,[3],0.000442 s⁻¹
same,kon,[3],91600 M⁻¹ s⁻¹
same,Kd,[4],4.83 nM
same,koff,[4],0.000442 s⁻¹
same,kon,[4],91600 M⁻¹ s⁻¹
same,EC50,[5],0.364 µg/mL
same,Kd,[6],1.79 nM
same,koff,[6],0.000106 s⁻¹
same,kon,[6],59300 M⁻¹ s⁻¹
same,Kd,[7],8.51 pM
same,koff,[7],9.18e-07 s⁻¹
same,kon,[7],108000 M⁻¹ s⁻¹
same,EC50,[8],0.11 µg/mL
same,EC50,[9],0.04 to 0.1 µg/mL

# — patent US20210147536A1 (MAB VENTURE BIOPHARM, published 2021)
